# Assay results as given in article PMC9352680, “A comprehensive thermodynamic model for RNA binding by the Saccharomyces cerevisiae Pumilio protein PUF4”.
# T1: PUF4 RNA-binding domain (Saccharomyces cerevisiae, UniProt P25339 537-888)
# T1 sequence: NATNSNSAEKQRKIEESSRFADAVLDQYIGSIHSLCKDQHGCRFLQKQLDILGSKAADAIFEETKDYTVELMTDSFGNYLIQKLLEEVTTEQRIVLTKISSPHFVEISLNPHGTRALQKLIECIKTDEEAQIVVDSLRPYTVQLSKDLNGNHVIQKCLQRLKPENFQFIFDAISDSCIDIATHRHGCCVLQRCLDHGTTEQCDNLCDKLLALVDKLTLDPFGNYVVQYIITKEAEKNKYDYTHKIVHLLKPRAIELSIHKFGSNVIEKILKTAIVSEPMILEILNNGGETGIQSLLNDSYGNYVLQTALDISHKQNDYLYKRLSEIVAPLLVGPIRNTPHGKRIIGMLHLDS
# Target: T1, PUF4 RNA-binding domain
# Experiment: Mg; RNA-MaP; 20 mM Na-HEPES pH 7.4, 30 mM KOAc, 0.75 mM MgCl2, 0.1% Tween-20, 5% glycerol, 0.1 mg/mL BSA, 2 mM DTT; 25 C; 0.0125-409.6 nM protein
# Details: tags: N-His6-TEV cleaved; C-SNAP kept, Cy3B-labelled; label: tethered on chip by stalled RNA polymerase
row,Binder,Kd
1,UCUCUUAGUGUAUAUUAUUUCUCUU (ssRNA) [Id_ii_S1_P4E.2_K4.1_C4.2_[C-2A]_[T-1G]_H4.1_A4.1_F4.1_T4.2_[G10T]],2.57 nM
2,UCUCUUUAUGUAUAUUAUGUCUCUU (ssRNA) [Id_ii_S1_P4E.2_K4.1_C4.2_[C-2T]_[T-1A]_H4.1_A4.1_F4.1_T4.2_[G10T]_[T11G]],0.98 nM
3,UCUCUUUCUGUAUAUUACUUCUCUU (ssRNA) [Id_ii_S1_P4E.2_K4.1_C4.2_[C-2T]_[T-1C]_H4.1_A4.1_F4.1_T4.2_[G10C]],0.672 nM
4,UCUCUUUUUGUAUAUUAGCUCUCUU (ssRNA) [Id_ii_S1_P4E.2_K4.1_C4.2_[C-2T]_H4.1_A4.1_F4.1_T4.2_[T11C]],0.413 nM
5,UCUCUUUCUGUAUAUUAUUUCUCUU (ssRNA) [Id_ii_S1_P4E.2_K4.1_C4.2_[C-2T]_[T-1C]_H4.1_A4.1_F4.1_T4.2_[G10T]],0.502 nM
6,UCUCUUUUUGUAUAUUAGUUCUCUU (ssRNA) [Id_ii_S1_P4E.2_K4.1_C4.2_[C-2T]_H4.1_A4.1_F4.1_T4.2],0.256 nM
7,UCUCUUUUUGUAUAUUAUCUCUCUU (ssRNA) [Id_ii_S1_P4E.2_K4.1_C4.2_[C-2T]_H4.1_A4.1_F4.1_T4.2_[G10T]_[T11C]],0.856 nM
8,UCUCUUUUUGUAUAUUAUGUCUCUU (ssRNA) [Id_ii_S1_P4E.2_K4.1_C4.2_[C-2T]_H4.1_A4.1_F4.1_T4.2_[G10T]_[T11G]],0.981 nM
9,UCUCUUAUUGUAUAUUAUGUCUCUU (ssRNA) [Id_ii_S1_P4E.2_K4.1_C4.2_[C-2A]_H4.1_A4.1_F4.1_T4.2_[G10T]_[T11G]],1.27 nM
10,UCUCUUUAUGUAUAUUAGCUCUCUU (ssRNA) [Id_ii_S1_P4E.2_K4.1_C4.2_[C-2T]_[T-1A]_H4.1_A4.1_F4.1_T4.2_[T11C]],0.465 nM
11,UCUCUUUGCAAAUUAUCUCUU (ssRNA) [Ib_S1_P4E.1_K4.1_C4.1_H4.1_[T3C]_A4.1_[T5A]_F4.1_T4.1],926 nM
12,UCUCUUUAUGUAUAUUAUUUCUCUU (ssRNA) [Id_ii_S1_P4E.2_K4.1_C4.2_[C-2T]_[T-1A]_H4.1_A4.1_F4.1_T4.2_[G10T]],1.07 nM
13,UCUCUUUUUGUAUAUUAAGUCUCUU (ssRNA) [Id_ii_S1_P4E.2_K4.1_C4.2_[C-2T]_H4.1_A4.1_F4.1_T4.2_[G10A]_[T11G]],3.68 nM
14,UCUCUUACUGUAUAUUAUCUCUCUU (ssRNA) [Id_ii_S1_P4E.2_K4.1_C4.2_[C-2A]_[T-1C]_H4.1_A4.1_F4.1_T4.2_[G10T]_[T11C]],1.4 nM
15,UCUCUUAUUGUAUAUUAUCUCUCUU (ssRNA) [Id_ii_S1_P4E.2_K4.1_C4.2_[C-2A]_H4.1_A4.1_F4.1_T4.2_[G10T]_[T11C]],0.846 nM
16,UCUCUUACUGUAUAUUAUGUCUCUU (ssRNA) [Id_ii_S1_P4E.2_K4.1_C4.2_[C-2A]_[T-1C]_H4.1_A4.1_F4.1_T4.2_[G10T]_[T11G]],1.34 nM
17,UCUCUUUUUGUAUAUUAAUUCUCUU (ssRNA) [Id_ii_S1_P4E.2_K4.1_C4.2_[C-2T]_H4.1_A4.1_F4.1_T4.2_[G10A]],1.09 nM
18,UCUCUUUCUGUAUAUUAGUUCUCUU (ssRNA) [Id_ii_S1_P4E.2_K4.1_C4.2_[C-2T]_[T-1C]_H4.1_A4.1_F4.1_T4.2],0.308 nM
19,UCUCUUUUUGUAUAUUAUAUCUCUU (ssRNA) [Id_ii_S1_P4E.2_K4.1_C4.2_[C-2T]_H4.1_A4.1_F4.1_T4.2_[G10T]_[T11A]],1.24 nM

row,Binder,Kd
1,UCUCUUUUUGUAUAUUAGGUCUCUU (ssRNA) [Id_ii_S1_P4E.2_K4.1_C4.2_[C-2T]_H4.1_A4.1_F4.1_T4.2_[T11G]],0.884 nM
2,UCUCUUUCUGUAUAUUAACUCUCUU (ssRNA) [Id_ii_S1_P4E.2_K4.1_C4.2_[C-2T]_[T-1C]_H4.1_A4.1_F4.1_T4.2_[G10A]_[T11C]],0.887 nM
3,UCUCUUACUGUAUAUUACUUCUCUU (ssRNA) [Id_ii_S1_P4E.2_K4.1_C4.2_[C-2A]_[T-1C]_H4.1_A4.1_F4.1_T4.2_[G10C]],1.6 nM
4,UCUCUUACUGUAUAUUAUAUCUCUU (ssRNA) [Id_ii_S1_P4E.2_K4.1_C4.2_[C-2A]_[T-1C]_H4.1_A4.1_F4.1_T4.2_[G10T]_[T11A]],1.83 nM
5,UCUCUUUUUGUAUAUUACUUCUCUU (ssRNA) [Id_ii_S1_P4E.2_K4.1_C4.2_[C-2T]_H4.1_A4.1_F4.1_T4.2_[G10C]],0.909 nM
6,UCUCUUUAUGUAUAUUAGUUCUCUU (ssRNA) [Id_ii_S1_P4E.2_K4.1_C4.2_[C-2T]_[T-1A]_H4.1_A4.1_F4.1_T4.2],0.379 nM
7,UCUCUUUAUGUAUAUUACUUCUCUU (ssRNA) [Id_ii_S1_P4E.2_K4.1_C4.2_[C-2T]_[T-1A]_H4.1_A4.1_F4.1_T4.2_[G10C]],1.03 nM
8,UCUCUUUCUGUAUAUUAUAUCUCUU (ssRNA) [Id_ii_S1_P4E.2_K4.1_C4.2_[C-2T]_[T-1C]_H4.1_A4.1_F4.1_T4.2_[G10T]_[T11A]],0.738 nM
9,UCUCUUACUGUAUAUUAUUUCUCUU (ssRNA) [Id_ii_S1_P4E.2_K4.1_C4.2_[C-2A]_[T-1C]_H4.1_A4.1_F4.1_T4.2_[G10T]],1.39 nM
10,UCUCUUUAUGUAUAUUAUCUCUCUU (ssRNA) [Id_ii_S1_P4E.2_K4.1_C4.2_[C-2T]_[T-1A]_H4.1_A4.1_F4.1_T4.2_[G10T]_[T11C]],0.896 nM
11,UCUCUUUCUGUAUAUUAUCUCUCUU (ssRNA) [Id_ii_S1_P4E.2_K4.1_C4.2_[C-2T]_[T-1C]_H4.1_A4.1_F4.1_T4.2_[G10T]_[T11C]],0.77 nM
12,UCUCUUUUUGUAUAUUAUUUCUCUU (ssRNA) [Id_ii_S1_P4E.2_K4.1_C4.2_[C-2T]_H4.1_A4.1_F4.1_T4.2_[G10T]],0.679 nM
13,UCUCUUUGUGUAUAUUAGUUCUCUU (ssRNA) [Id_ii_S1_P4E.2_K4.1_C4.2_[C-2T]_[T-1G]_H4.1_A4.1_F4.1_T4.2],0.304 nM
14,UCUCUUAAUGUAUAUUACCUCUCUU (ssRNA) [Id_ii_S1_P4E.2_K4.1_C4.2_[C-2A]_[T-1A]_H4.1_A4.1_F4.1_T4.2_[G10C]_[T11C]],2.09 nM
15,UCUCUUUGCAUCUUAUCUCUU (ssRNA) [Ib_S1_P4E.1_K4.1_C4.1_H4.1_[T3C]_A4.1_[A6C]_F4.1_T4.1],> 2300 nM
16,UCUCUUUAUGUAUAUUAAAUCUCUU (ssRNA) [Id_ii_S1_P4E.2_K4.1_C4.2_[C-2T]_[T-1A]_H4.1_A4.1_F4.1_T4.2_[G10A]_[T11A]],1.94 nM
17,UCUCUUAUUGUAUAUUACUUCUCUU (ssRNA) [Id_ii_S1_P4E.2_K4.1_C4.2_[C-2A]_H4.1_A4.1_F4.1_T4.2_[G10C]],1.16 nM
18,UCUCUUAAUGUAUAUUAUCUCUCUU (ssRNA) [Id_ii_S1_P4E.2_K4.1_C4.2_[C-2A]_[T-1A]_H4.1_A4.1_F4.1_T4.2_[G10T]_[T11C]],2.38 nM
19,UCUCUUAAUGUAUAUUACUUCUCUU (ssRNA) [Id_ii_S1_P4E.2_K4.1_C4.2_[C-2A]_[T-1A]_H4.1_A4.1_F4.1_T4.2_[G10C]],1.68 nM

row,Binder,Kd
1,UCUCUUUGCAUGUUAUCUCUU (ssRNA) [Ib_S1_P4E.1_K4.1_C4.1_H4.1_[T3C]_A4.1_[A6G]_F4.1_T4.1],2150 nM
2,UCUCUUUCUGUAUAUUAAGUCUCUU (ssRNA) [Id_ii_S1_P4E.2_K4.1_C4.2_[C-2T]_[T-1C]_H4.1_A4.1_F4.1_T4.2_[G10A]_[T11G]],2.74 nM
3,UCUCUUUUUGUAUAUUACCUCUCUU (ssRNA) [Id_ii_S1_P4E.2_K4.1_C4.2_[C-2T]_H4.1_A4.1_F4.1_T4.2_[G10C]_[T11C]],1.09 nM
4,UCUCUUUAUAUAAUAUCUCUU (ssRNA) [Ib_S1_P4E.1_K4.1_C4.1_H4.1_[G2A]_A4.1_[T7A]_F4.1_T4.1],61.4 nM
5,UCUCUUUAUGUAUAUUAAUUCUCUU (ssRNA) [Id_ii_S1_P4E.2_K4.1_C4.2_[C-2T]_[T-1A]_H4.1_A4.1_F4.1_T4.2_[G10A]],1.17 nM
6,UCUCUUUAUGUAUAUUACCUCUCUU (ssRNA) [Id_ii_S1_P4E.2_K4.1_C4.2_[C-2T]_[T-1A]_H4.1_A4.1_F4.1_T4.2_[G10C]_[T11C]],0.854 nM
7,UCUCUUUUUGUAUAUUAACUCUCUU (ssRNA) [Id_ii_S1_P4E.2_K4.1_C4.2_[C-2T]_H4.1_A4.1_F4.1_T4.2_[G10A]_[T11C]],1.09 nM
8,UCUCUUUGUAUACUAUCUCUU (ssRNA) [Ic_S1_P4E.1_K4.1_C4.1_H4.1_A4.1_[T7C]_F4.1_T4.1],0.741 nM
9,UCUCUUUAUGUAUAUUAACUCUCUU (ssRNA) [Id_ii_S1_P4E.2_K4.1_C4.2_[C-2T]_[T-1A]_H4.1_A4.1_F4.1_T4.2_[G10A]_[T11C]],1.35 nM
10,UCUCUUACUGUAUAUUAACUCUCUU (ssRNA) [Id_ii_S1_P4E.2_K4.1_C4.2_[C-2A]_[T-1C]_H4.1_A4.1_F4.1_T4.2_[G10A]_[T11C]],1.47 nM
11,UCUCUUUCUGUAUAUUAUGUCUCUU (ssRNA) [Id_ii_S1_P4E.2_K4.1_C4.2_[C-2T]_[T-1C]_H4.1_A4.1_F4.1_T4.2_[G10T]_[T11G]],0.963 nM
12,UCUCUUUCUGUAUAUUAAAUCUCUU (ssRNA) [Id_ii_S1_P4E.2_K4.1_C4.2_[C-2T]_[T-1C]_H4.1_A4.1_F4.1_T4.2_[G10A]_[T11A]],1.06 nM
13,UCUCUUAUUGUAUAUUACCUCUCUU (ssRNA) [Id_ii_S1_P4E.2_K4.1_C4.2_[C-2A]_H4.1_A4.1_F4.1_T4.2_[G10C]_[T11C]],0.788 nM
14,UCUCUUAAUGUAUAUUAUUUCUCUU (ssRNA) [Id_ii_S1_P4E.2_K4.1_C4.2_[C-2A]_[T-1A]_H4.1_A4.1_F4.1_T4.2_[G10T]],1.61 nM
15,UCUCUUUCUGUAUAUUACCUCUCUU (ssRNA) [Id_ii_S1_P4E.2_K4.1_C4.2_[C-2T]_[T-1C]_H4.1_A4.1_F4.1_T4.2_[G10C]_[T11C]],0.848 nM
16,UCUCUUUGCACAUUAUCUCUU (ssRNA) [Ib_S1_P4E.1_K4.1_C4.1_H4.1_[T3C]_A4.1_[T5C]_F4.1_T4.1],36.2 nM
17,UCUCUUACUGUAUAUUACCUCUCUU (ssRNA) [Id_ii_S1_P4E.2_K4.1_C4.2_[C-2A]_[T-1C]_H4.1_A4.1_F4.1_T4.2_[G10C]_[T11C]],1.69 nM
18,UCUCUUUGUGUAUAUUAAUUCUCUU (ssRNA) [Id_ii_S1_P4E.2_K4.1_C4.2_[C-2T]_[T-1G]_H4.1_A4.1_F4.1_T4.2_[G10A]],1.63 nM
19,UCUCUUUUUGUAUAUUAAAUCUCUU (ssRNA) [Id_ii_S1_P4E.2_K4.1_C4.2_[C-2T]_H4.1_A4.1_F4.1_T4.2_[G10A]_[T11A]],1.21 nM
